Source: US20050164933A1 (NONO, published 2005)

B1: GST-PAR3 PDZ domain 3 fusion protein (other, not shown: a dimerising Fc or GST; small tags and cut ends)
chain: PREFLTFEVPLNDSGSAGLGVSVKGNRSKENHADLGIFVKSIINGGAASKDGRLRVNDQLIAVNGESLLGKTNQDAMETLRRSMSTEGNKRGMIQLIVASRISKCNELKSNSS
notes: also called PAR3 d3 (278.1); PAR3 d3
B2: GST-ZO-1 PDZ domain 2 fusion protein (other, not shown: a dimerising Fc or GST; small tags and cut ends)
chain: ISSQPAKPTKVTLVKSRKNEEYGLRLASHIFVKEISQDSLAARDGNIQEGDVVLKINGTVTENMSLTDAKTLIERSKGKLKMVVQRDRATLLNSS
notes: also called ZO-1 d2 (241.3); ZO-1 d2
B3: GST-RIM2 PDZ domain 1 fusion protein (other, not shown: a dimerising Fc or GST; small tags and cut ends)
chain: TLNEEHSHSDKHPVTWQPSKDGDRLIGRILLNKRLKDGSVPRDSGAMLGLKVVGGKMTESGRLCAFITKVKKGSLADTVGHLRPGDEVLEWNGRLLQGATFEEVYNIILESKPEPQVELVVSRPIG
notes: also called RIM-2 d1; RIM2 (177.4)

biological target: …; experiment: G assay

Binder	binding result
B1	binds
B2	binds
B3	binds
